Experimental data reported in patent US20150005230A1, “CYCLODEXTRIN-BASED POLYMERS FOR THERAPEUTIC DELIVERY” (priority 2012, published 2015).

Target: human albumin (Homo sapiens, UniProt P02768)
Test: Release of CPT in reconstituted human albumin (PBS solution)
Assay type: in vitro ADME
Settings: in the presence of albumin
Procedure: Samples were stored at −80° C. until the analysis.

human albumin, sequence (P02768 25-609): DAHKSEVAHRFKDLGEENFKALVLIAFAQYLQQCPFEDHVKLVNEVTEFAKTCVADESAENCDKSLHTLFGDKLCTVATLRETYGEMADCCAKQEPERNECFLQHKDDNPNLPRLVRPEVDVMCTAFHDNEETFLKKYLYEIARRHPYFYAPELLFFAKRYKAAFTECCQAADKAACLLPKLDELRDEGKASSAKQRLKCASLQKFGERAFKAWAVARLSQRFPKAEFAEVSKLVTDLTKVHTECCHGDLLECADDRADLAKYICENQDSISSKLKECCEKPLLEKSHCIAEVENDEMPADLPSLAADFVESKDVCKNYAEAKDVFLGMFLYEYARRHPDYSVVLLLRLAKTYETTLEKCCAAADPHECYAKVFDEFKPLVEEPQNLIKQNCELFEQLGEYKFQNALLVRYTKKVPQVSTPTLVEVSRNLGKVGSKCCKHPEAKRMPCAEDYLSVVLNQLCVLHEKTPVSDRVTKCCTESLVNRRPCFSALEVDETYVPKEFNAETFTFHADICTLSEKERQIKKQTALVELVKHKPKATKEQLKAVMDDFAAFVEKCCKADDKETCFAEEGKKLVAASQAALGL

## Poly(CDDCys-PA-PEG)-Gly-CPT [HG6]
  CPT release rate compared with PBS: on the same order of magnitude as in PBS

## Poly(CDDCys-PA-PEG)-GlyGlyGly-CPT [HGGG6]
  CPT release rate compared with PBS: on the same order of magnitude as in PBS
